Experimental data from paper doi:10.1101/2021.09.30.462597 (bioRxiv, 2021).
Positions count from the first letter of the chain named. In names and notes the source's numbering stands. Where two headings read alike, the source gives them in different places.

T1: Gli2-ZF-GFP (human, UniProt P10070 418-604)
T1 sequence (looked up): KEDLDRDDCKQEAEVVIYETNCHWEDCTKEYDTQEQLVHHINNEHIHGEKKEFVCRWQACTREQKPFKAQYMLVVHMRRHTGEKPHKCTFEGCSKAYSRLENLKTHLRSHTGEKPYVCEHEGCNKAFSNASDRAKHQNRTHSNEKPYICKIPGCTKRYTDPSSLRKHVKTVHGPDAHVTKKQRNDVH

T2: Gli2-ZF, zinc-finger domain of Gli2 (recombinant) (human, UniProt P10070 418-604)
T2 sequence (looked up): T1 sequence (looked up)

B1: Kif7-CC-GFP (domain or fragment, human, UniProt Q2M1P5 460-600, looked up)
chain: PDSGIESASVEDQAAQGAGGRKEDEGAQQLLTLQNQVARLEEENRDFLAALEDAMEQYKLQSDRLREQQEEMVELRLRLELVRPGWGGPRLLNGLPPGSFVPRPHTAPLGGAHAHVLGMVPPACLPGDEVGSEQRGEQVTN
B2: GST-Kif7-CC (460-600aa) (domain or fragment, human, UniProt Q2M1P5 460-600, looked up)
chain: B1 chain
B3: GST-Kif7-CC D505A (domain or fragment, human, UniProt Q2M1P5 460-600, looked up)
chain: B1 chain with D46A
B4: GFP-tagged GST-Kif7-CC (domain or fragment, human, UniProt Q2M1P5 460-600, looked up)
chain: B1 chain
B5: Kif7-DM-GFP (1-543aa), dimeric Kif7 protein (domain or fragment, human, UniProt Q2M1P5 1-543, looked up)
chain: MGLEAQRLPGAEEAPVRVALRVRPLLPKELLHGHQSCLQVEPGLGRVTLGRDRHFGFHVVLAEDAGQEAVYQACVQPLLEAFFEGFNATVFAYGQTGSGKTYTMGEASVASLLEDEQGIVPRAMAEAFKLIDENDLLDCLVHVSYLEVYKEEFRDLLEVGTASRDIQLREDERGNVVLCGVKEVDVEGLDEVLSLLEMGNAARHTGATHLNHLSSRSHTVFTVTLEQRGRAPSRLPRPAPGQLLVSKFHFVDLAGSERVLKTGSTGERLKESIQINSSLLALGNVISALGDPQRRGSHIPYRDSKITRILKDSLGGNAKTVMIACVSPSSSDFDETLNTLNYASRAQNIRNRATVNWRPEAERPPEETASGARGPPRHRSETRIIHRGRRAPGPATASAAAAMRLGAECARYRACTDAAYSLLRELQAEPGLPGAAARKVRDWLCAVEGERSALSSASGPDSGIESASVEDQAAQGAGGRKEDEGAQQLLTLQNQVARLEEENRDFLAALEDAMEQYKLQSDRLREQQEEMVELRLRLELVRP
B6: Kif7-DM(E502A)-GFP (domain or fragment, human, UniProt Q2M1P5 1-543, looked up)
chain: B5 chain with E502A
B7: GST-Kif7-SCC (481-543aa) (domain or fragment, human, UniProt Q2M1P5 481-543, looked up)
chain: KEDEGAQQLLTLQNQVARLEEENRDFLAALEDAMEQYKLQSDRLREQQEEMVELRLRLELVRP
B8: Gli2-ZF-SNAP (domain or fragment, human, UniProt P10070 418-604, looked up)
chain: T1 sequence (looked up)
modifications: Alexa-647 label (in the TIRF assays)

Key:
[1] = target: Kif7M-Kif27CC chimera (GFP) (human); test: SEC
[2] = target: Kif27M-Kif7CC chimera (GFP) (human); test: SEC
Gli2-ZF-GFP = target: T1, Gli2-ZF-GFP; test: SEC
[3] = target: T2, Gli2-ZF, zinc-finger domain of Gli2 …; test: BLI
[4] = target: the molecule itself; test: single molecule fluorescence intensity and photobleaching analysis
[5] = target: GDP-taxol stabilized microtubules from bovine tubulin (co-sedimentation) (bovine) (UniProt Q6B856); test: co-sedimentation
[6] = target: GDP-taxol stabilized microtubules from bovine tubulin (co-sedimentation) (bovine) (UniProt Q6B856); test: co-sedimentation; remark: listed apart in the source
SEC = target: the molecule itself; test: SEC
[7] = target: B5; test: TIRF microscopy of proteins on immobilised microtubules
Kif7-DM(E502A)-GFP = target: B6; test: as above

## Kif7M-Kif27CC chimera (GFP)
[1]
  stoichiometry N: 2

## Kif27M-Kif7CC chimera (GFP)
[2]
  stoichiometry N: 2

## B1
Gli2-ZF-GFP
  stoichiometry N: 2 Kif7-CC-GFP per Gli2-ZF-GFP

## B2
[3]
  Kd: 48 ± 5 nM

## B3
[3]
  binding result: binds

## B4
[4]
  stoichiometry N: 2

## B5
[5]
  Kd: 4.23 µM
[6]
  Kd: 540 nM
Gli2-ZF-GFP
  stoichiometry N: 1 Kif7-DM per Gli2-ZF

## B6
SEC
  stoichiometry N: 2

## B7
[3]
  Kd: 69 ± 20 nM

## B8
[7]
  fold above the background fluorescence of Gli alone on microtubules: ~3 fold
Kif7-DM(E502A)-GFP
  binding result: binds
